Columns and labels:
[1] = substrate: C[C@@H](O)[C@H]1C(=O)N2C(C(=O)O)=C(S[C@@H]3CN[C@H](C(=O)N(C)C)C3)[C@H](C)[C@H]12; assay: (§1) Ratio of Kcat to Km for Pseudomonas aeruginosa beta-lactamase IMP-1 by UV spectrophotometric analysis
[2] = substrate: C[C@@H](O)[C@H]1C(=O)N2C(C(=O)[O-])=C(SC3Cn4cnc[n+]4C3)[C@H](C)[C@H]12; assay: as §1
[3] = substrate: C[C@@H](O)[C@H]1C(=O)N2C(C(=O)O)=C(SCCNC=N)C[C@H]12; assay: as §1
[4] = substrate: C[C@@H](O)[C@H]1C(=O)N2C(C(=O)[O-])=C(SC3Cn4cnc[n+]4C3)[C@H](C)[C@H]12; assay: (§2) Activity of Pseudomonas aeruginosa beta-lactamase IMP-1 by UV spectrophotometric analysis
[5] = substrate: C[C@@H](O)[C@H]1C(=O)N2C(C(=O)O)=C(SCCNC=N)C[C@H]12; assay: as §2

B1: Beta-lactamase (Pseudomonas aeruginosa), Q79MP6 (protein)
chain: MSKLSVFFIFLFCSIATAAESLPDLKIEKLDEGVYVHTSFEEVNGWGVVPKHGLVVLVNAEAYLIDTPFTAKDTEKLVTWFVERGYKIKGSISSHFHSDSTGGIEWLNSRSIPTYASELTNELLKKDGKVQATNSFSGVNYWLVKNKIEVFYPGPGHTPDNVVVWLPERKILFGGCFIKPYGLGNLGDANIEAWPKSAKLLKSKYGKAKLVVPSHSEVGDASLLKLTLEQAVKGLNESKKPSKPSN
Protein B1 has a kcat/Km [1] of 200000 M⁻¹ s⁻¹, a kcat/Km [2] of 300000 M⁻¹ s⁻¹ and a kcat/Km [3] of 1.8e+06 M⁻¹ s⁻¹. For the same protein, the Km [4] was 167 µM, the kcat [4] was 44.7 s⁻¹ and the Km [5] was 35.1 µM. For the same protein, the kcat [5] was 63.5 s⁻¹.
